B1: YANG-2105 (antibody, V domains shown)
VH: EVQLVESGGGLIQPGGSLRLSCAASGLTVSSNYMNWVRQAPGKGLEWVSVIYSGGSTFYTDSVKGRFTISRDNSKNTLNLQMNSLRAEDTAVYYCARDLGIRGGMDVWGQGTTVTVSS
VL: DIQLIQSPSFLSASVGDRVTITCWASQGISSYLAWYQQKPGKAPNLLIYAASTLQSGVPSRFSGSGSGTEFTLTISSLQPEDFATYYCQQLDGSLTFGGGTKVEIK
B2: YANG-2103 (antibody, V domains shown)
VH: EAQLVESGGGLIQSGGSLRLSCIASGLTVNSNYMNWVRQAPGKGLEWVSVIYSGGTTFYADSVKGRFTISRDNSKNTLYLQMTSLRAEDTAVYYCAREGYGMDVWGQGTTVTVSS
VL: SYVLTQPPSVSVAPGKTARINCGGNNFGSKSVHWYQQKPGQAPVLVIYYDSDRPSGIPERFSGSNSGNTATLTISRVEAGDEADYYCQVWDNSSDHFVFGAGTKVTVL
B3: YANG-1401 (antibody, V domains shown)
VH: QVHLQESGPGLVKPSGTLSLTCAVSGGSFSQINWWSWVRQSPGKGLEWIGEIYHSGSTNYNPSLKSRVTMSVDKSKNQFSLALNSVTAADTAVYYCARGYYGDNWFDSWGQGTLVTVSS
VL: DIQMTQSPSSLSASIGDRVTITCRASQGISNWLVWYQQKPEKAPKSLIYAASSLQSGVPSRFSGSGSGTDFTLTISSLHPEDFATYYCQQYSDYPLTFGGGTKVEIK
B4: YANG-2101 (antibody, V domains shown)
VH: EVQLVESGGGLVQPGGSLRLSCAASGFTFSLYDMHWVRQATGKGLEWVAGVGIAGDTIYPDSVKGRFTISRENAKNSFFLQMNRLRAGDTAVYYCVRGGTGTTFFDYWGQGVLVTVSS
VL: DIQMTQSPSSLSASVGDRVTVTCRASQDITNYLAWFQQKPGKAPKSLIYSASSLQGGTPSKFSGSGSGTEFTLTISSLQPEDFATYYCQQYNSFPLTFGGGTKVEIK
B5: YANG-2102 (antibody, V domains shown)
VH: EVKLVESGGGLVQRGGSLRLSCAASGFTFSSHAMYWVRQIPGKGLEWVAGIGVAGDTFYPDSVKGRFTISRENANNSLSLQMDSLRTGDTAIYYCVRDGYSGSYPYHYYGMDVWGQGITVVVSS
VL: DIQLTQSPSSLSASVGDSVTITCRASQGIDTYLAWFQQKPGKAPKSLIYVASSLQSGVPSKFSGSGSGTDFTLTISSLLPEDFATYYCQQYKSYPWTFGQGTKVEIK
B6: YANG-2104 (antibody, V domains shown)
VH: EVKLVESGGGLVQPGGSLRLSCAASGFTFSSHAMYWVRQSPGKGLEWVSGIGVAGDTFYVDSVKGRFTISRENARNSLSLQMNSLRAGDTAVYYCARDGYSGTHPYHFYGMDVWGQGITVVVSS
VL: DIQMTQSPSSLSASVGDSVTITCRASQDINTYLAWFQQKPGKAPKSLIYVASSLQSGVPSKFSGSGSGTDFTLTISSLLPEDFATYYCQQYKSYPWTFGQGTKVEIK
B7: YANG-2111 (antibody, V domains shown)
VH: GVQLVESGGGLVQPGRSLRLSCAASGFTFDDYALHWVRQVPGKGLEWVSSISWNSDDLGYADSVEGRFTISRDNAKNSLYLQMSSLRTEDTALYYCVKDTRAHYDILAGYRGLDSWGQGTLVTVSS
VL: DIVMTQSPLSLPVTPGEPASISCRSTQSLLHSNGYNFLDWYLQKPGQSPQLLIYLGSNRASGVPDRFSGSGSGTDFSLKISRVEAEDIGIYYCIQGLQTPITFGQGTRLEIK
B8: YANG-1302 (antibody, V domains shown)
VH: QVQLVESGGGAVQPGRSLRLSCRASGFTFSSFGMNWVRQVPGKGLVWVAGIWYDGRNKYYADSVKGRFTISRENSKNMLYLQMNSLRAEDTAVYYCARDQDSGFDGNWFGPWGQGTMVTVSS
VL: SYELTQPPSMSVSPGQTASITCSGDNLGDKYVCWYQQRPGQSPVMVIFQDSTRPSGIPERFSGSNSGNTATLTISGTQAMDEADYYCQAWDSNTAVFGGGTKLTVL
B9: YANG-2110 (antibody, V domains shown)
VH: EVQLVESGGGLIQPGGSLRLSCAASGFIVSRNYMSWVRQAPGKGLDWVSVIYSGGSTYYADSVKGRFTISRDNSKNTLYLQMNSLRAEDTAVYYCARSIAVAGEGLDSWGQGTLVTVSS
VL: EIVMTQSPATLSLSPGDRATLSCRASQSVSNIFISWYQQKPGQAPRLLIYGASIRATDIPARFSGSGSGTDFTLTISSLQPEDFAIYFCQQDYNLPLTFGGGTKVEIK
B10: YANG-1403 (antibody, V domains shown)
VH: QVQLVESGGGVVQPGRSLRLSCAASGFTFSNYGMHWVRQAPGKGLEWVAVIWYDGSNKYYADSVKGRFTISRDNSKNTLYLQMNSLRAEDTAVYFCVRETVTDGMDVWGQGTTVTVSL
VL: NIQMTQSPSAMSASVGDRVTITCRARQDISNYLAWFQQKPGKVPKHLIYAASSLLSGVPSRFSGSGSGTEFTLTISSLQPEDFATYYCLHHNGYPWTFGQGTKVEIK
B11: YANG-2106 (antibody, V domains shown)
VH: QVQVVESGGGVVQPGRSLRLSCSASGFTFSTYGMHWVRQAPGKGLEWVAVIWYDGSNKYYADSVKGRFIISRDNSKNTLYLQMSSLRPDDTAVYYCVREGVADGMGVWGQGTTVTVSS
VL: NIQMTQSPSAMSASVGDRVTITCRARQDISTYLAWFQQKPGKVPKHLIYAASTLLSGVPSRFGGSGSGTEFTLTITSLQPEDFATYYCLHHNNYPWTFGQGTKVEIK
B12: YANG-1303 (antibody, V domains shown)
VH: QVQLVQSGTEMKEPGASVKVSCKASGYTFTNYGITWVRQAPGQGLEWMGWLNTNNGDTNYAQKLQGRVTMTTDTSTSTAYMELRSLRSDDTAVYYCARDSVTTYDYWGQGTLVTVSS
VL: SYELTQPPSVSVSPGQTARITCSGDALPKKYAYWFQQKSAQAPVLVIYEDSKRPSGIPERFSGSSSGTMATLTINGAQVEDEAAYYCYSLDSSGNHWVFGGGTKLTVL
B13: YANG-1304 (antibody, V domains shown)
VH: QVQLQQWGAGLVKTSETLSLTCAVYGGSFNDHYWSWIRQPPGKGLEWIGEINHSGSTNYNPSLKSRVTMSLDTSKNQFSLKLRSLTAADTAMYYCAIEGIWGQGAMVTVSS
VL: SYELTQPPSVSVSPGQTARITCSGDALPIKYVHWYQQKSGQAPVLVIYEDSKRPSGIPERISGSSSGTMATLTMSGAQVEDEADYYCYSTDSSGNHWVFGGGTKLTVL
B14: YANG-2112 (antibody, V domains shown)
VH: QVQLVQSGAEVKKPGASVKVSCKVSGFTLTHLSIHWVRQAPGRGLEWMGGFDPVDGQTVYAQNFQGRVTMTEDTSTDTANMDLNNLKSEDTAVYYCATGVVVPAAPYYYSSGMDVWGQGTTVTVSS
VL: QSVLTQPPSTSGTPGQRVTISCSGSSSNIAKNYVYWYQQLPGTAPKLLIYRTNQRPSGVPDRFSGSRSGTSASLAISGLRSEDEATYYCATWDDTLSVIFGGGTNLTVL
B15: YANG-2109 (antibody, V domains shown)
VH: QVQLVQSGAEVKKPGSSVKVSCKASGGTFSGYTISWIRQAPGQGLEWMGGIIPSFGSLNYGQKFQDRVSITTDELKSTVYMELSSLNSEDTAIYYCTRESITSGYYYGMAVWGQGTTVTVSS
VL: DIQMTQSPSSLSASVGDRVTITCRASQGIRDDLGWFQQKPGKAPKRLISAASSLQSGVPSRFSGSGSGTEFTLTISSLQPEDFATYYCLQHNSYPLTFGGGTKVEIR
B16: YANG-2107 (antibody, V domains shown)
VH: QVQLQESGPGLVKPSGTLSLTCAVSGGSIRSSNWWIWVRQSPGKGLEWIGEIYHGGNTNYNPSLKSRVTLSVDKSKNQFSLKLSSVTAADTAVYYCARALYDIGGVFDIWGQGTMVTVSS
VL: QSALTQPASVSGSPGQSISISCTGTSSDIGGYNYVSWYQQHPGKAPKLMIYDVSERPSGVSNRFSGSKSGNTASLTISGLQAEDEGDYYCCSYAANSNVVFGGGTKLSVL
B17: YANG-2108 (antibody, V domains shown)
VH: QVQLQESGPGQVKPSGTLSLTCAVSGGSIRSSNWWIWVRQPPGKGLEWIGEIYHGGNTNYSPSLKSRVSISVDKSKNHFSLNLTSVTAADTAVYYCARALYDVGGVFDIWGQGTMVTVSS
VL: QSALTQPASVSGSPGQSITISCTGSSSDVGGYNYVSWYQQHPGKAPKLMIYDVSERPSGVSNRFSGSKSGNTASLTISGLQAEDEGDYYCCSYAANSNVVFGGGTKLSVL
B18: YANG-1301 (antibody, V domains shown)
VH: QVQLVESGGGVVQPGRSLRLSCAASGFTFSSYGMHWVRQAPGKGLEWVAVIWYDGSNKFYADSVKGRFTISRDNSKNTLYLQMNSLKAEDTAVYYCARDTWIGESDTSWLDPWGQGTLVTVSS
VL: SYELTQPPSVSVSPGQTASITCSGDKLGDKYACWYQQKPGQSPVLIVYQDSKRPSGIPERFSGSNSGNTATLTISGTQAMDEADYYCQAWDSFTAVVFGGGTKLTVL
B19: YANG-2201 (antibody, V domains shown)
VH: QEQLVESGGGVVQPGMSLRLSCAASGFTFSNYGMHWVRQSPGKGLEWVTFISYDGNNEYYVDSVKGRFTISRDNSKNTLFLQMNSLRAEDAAVYYCAKDRALNLYYFDSWGPGTLVTVSS
VL: DIVMTQPPLSLPVTPGEPASISCRSSQSLLHNNAYNHLNWYLQKPGQSPQFLIYLGSNRASGVPDRFSGSGSGTDFTLKISRVEAEDVGVYYCMQSLQIPITFGQGTRLEIK
B20: YANG-1305 (antibody, V domains shown)
VH: QVQLVESGGGVVQPGKSLRLSCAASGFAFSSFGMHWVRQAPGTGLEWLAIISFEGTKKYYADSMKGRITISRDNSKNTLYLQMNSLRAEDTAVYYCAADYGDYDDYYYGVHVWGQGTTVTVSS
VL: DIQMTQSPSSLSASVGDRVTITCRASQGIANYLAWYQQKPGKVPKLLIYATSTLQSGVPSRFSGSGSGTDFTLTISSLQPEDVAIYYCQKYDSAPFTFGPGTKVDFK
B21: YANG-1402 (antibody, V domains shown)
VH: EVQLVESGGGLIQPGGSLRLSCAASGVTVSSNYMNWVRQAPGKGLEWVSVIYSGGSTYYADSVKGRFTISRDNSKNTLYLQMNSLRVEDTAVYYCARDIGDYGMDVWGQGTTVTVSS
VL: DIQLTQAPSFLSASVGDRLTITCWASQGISSYLAWYQQKPGKAPKILIYAASTLQSGVPSRFSGSGSGTEFTLTISSLQPEDFATYYCQQLNSYPLIFGGGTKVEIK

The binders below were run against SARS-CoV-2 spike protein bearing furin mutation and truncation in retention sequence (on pseudoviral envelope) (SARS-CoV-2, UniProt P0DTC2 14-1273) (assay: cell-based or functional assay).
B1 was tested, and the “PV neutralization % (Ab 1 ug/mL)” value was 99.6%.
B2 was tested, and the “PV neutralization % (Ab 1 ug/mL)” value was 97.7%.
For B3, the “PV neutralisation IC50” value was 0.53 nM and the “PV neutralization % (Ab 1 ug/mL)” value was 91.6%.
B4 was tested, and the “PV neutralization % (Ab 1 ug/mL)” value was 100%.
With B5 the “PV neutralization % (Ab 1 ug/mL)” value was 99.4%.
With B6 the “PV neutralization % (Ab 1 ug/mL)” value was 99.3%.
With B7 the “PV neutralisation IC50” value was 1.33 nM and the “PV neutralization % (Ab 1 ug/mL)” value was 86.8%.
For B8, the “PV neutralisation IC50” value was 0.23 nM and the “PV neutralization % (Ab 1 ug/mL)” value was 60.3%.
In the case of B9, the “PV neutralization % (Ab 1 ug/mL)” value is reported as 99.9%.
B10 was tested, and the “PV neutralization % (Ab 1 ug/mL)” value was 99.3%.
For B11, the “PV neutralization % (Ab 1 ug/mL)” value was 93.3%.
In the case of B12, the “PV neutralization % (Ab 1 ug/mL)” value is reported as 46.3%.
For B13, the “PV neutralization % (Ab 1 ug/mL)” value was 41.5%.
With B14 the “PV neutralisation IC50” value was 0.65 nM and the “PV neutralization % (Ab 1 ug/mL)” value was 88.6%.
For B15, the “PV neutralisation IC50” value was 0.5 nM and the “PV neutralization % (Ab 1 ug/mL)” value was 95%.
For B16, the “PV neutralisation IC50” value was 0.3 nM and the “PV neutralization % (Ab 1 ug/mL)” value was 61.2%.
For B17, the “PV neutralisation IC50” value was 0.27 nM and the “PV neutralization % (Ab 1 ug/mL)” value was 81.8%.
With B18 the “PV neutralisation IC50” value was 0.52 nM and the “PV neutralization % (Ab 1 ug/mL)” value was 60.4%.
With B19 the “PV neutralization % (Ab 1 ug/mL)” value was 35.2%.
With B20 the “PV neutralisation IC50” value was 0.42 nM and the “PV neutralization % (Ab 1 ug/mL)” value was 60.5%.
B21 was tested, and the “PV neutralization % (Ab 1 ug/mL)” value was 94.5%.
